Data published in patent US20160138036A1 (SNU R AND DB FOUNDATION, published 2016).

Columns and labels:
[1] = biological target: T1, SOC1 (SUPPRESSOR OF OVEREXPRESSOR OF CONSTANS 1) transcription factor (Arabidopsis thaliana, UniProt O64645 1-214, 35S-Met label in the pull-down assay (in vitro translated)); assay: BiFC (split EYFP fusions) in Arabidopsis protoplasts
T1 construct: Full-size MADS box transcription factor; In yeast two-hybrid it was fused to GAL4 AD or BD (pGADT7/pGBKT7); In BiFC it was fused to a half of EYFP; In the pull-down it was in vitro translated from pGADT7 and 35S-labeled; also called Arabidopsis SOC1; At2g45660
T1 sequence (O64645 whole entry, the tested form may be a part): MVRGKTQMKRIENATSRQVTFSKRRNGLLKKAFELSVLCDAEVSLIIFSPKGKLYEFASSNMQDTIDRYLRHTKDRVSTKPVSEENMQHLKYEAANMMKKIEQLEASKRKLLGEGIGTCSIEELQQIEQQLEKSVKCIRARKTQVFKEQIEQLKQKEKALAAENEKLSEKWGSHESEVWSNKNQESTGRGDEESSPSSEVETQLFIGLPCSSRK
Protocol: (§1) BiFC assays were carried out as described previously (Hong et al., J. Biol. Chem. 286, 1659-1668, 2011). A full-size SOC1 gene was fused in-frame to the 5′ end of a gene sequence encoding the C-terminal half of EYFP in the pSATN-cEYFP-C1 vector (E3082). Truncated SOC1 gene sequences were fused in-frame to the 5′ end of a gene sequence encoding the N-terminal half of EYFP in the pSATN-nEYFP-C1 vector (E3081). The expression constructs were cotransformed into Arabidopsis protoplasts. Expression of the fusion constructs was monitored by fluorescence microscopy using a Zeiss LSM510 confocal microscope (Carl Zeiss MicroImaging GmbH, Jena, Germany). The BdSOC1 gene constructs were prepared similar to the Arabidopsis SOC1 gene constructs and transiently expressed in Brachypodium protoplasts.

[2] = biological target: T2, BdSOC1 (Brachypodium distachyon SUPPRESSOR OF OVEREXPRESSOR OF CONSTANS 1) transcription factor (Brachypodium distachyon, 35S-Met label in the pull-down assay (in vitro translated)); assay: BiFC (split YFP fusions) in Brachypodium protoplasts
T2 construct: Fused to an EYFP half in BiFC; In vitro translated and 35S-labeled in the pull-down; also called Bradi1g77020; Brachypodium SOC1
T2 sequence (chain, as listed by the source limits assumed): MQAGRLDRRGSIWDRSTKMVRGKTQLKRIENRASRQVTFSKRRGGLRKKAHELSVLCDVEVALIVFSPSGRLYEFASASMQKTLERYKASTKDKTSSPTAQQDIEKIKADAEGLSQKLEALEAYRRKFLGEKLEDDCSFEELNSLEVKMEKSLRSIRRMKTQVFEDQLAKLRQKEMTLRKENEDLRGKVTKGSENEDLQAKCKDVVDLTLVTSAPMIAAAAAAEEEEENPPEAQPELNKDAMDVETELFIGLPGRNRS
Protocol: (a) in vitro pull-down assays. The BdSOC1 protein was prepared as recombinant BdSOC1-MBP fusion in E. coli cells. The ³⁵S-labeled BdSOC1 polypeptides were prepared by in vitro translation. Part of Coomassie-stained gel is shown (bottom panel). (b) BiFC assays. Partial YFP fusion constructs were transiently expressed in Brachypodium protoplasts. Scale bars=10 μm.
as §1

binding result [1] | binding result [2] | Binder
binds | – | S-K truncated SOC1 form (35S-Met label in the pull-down assay (in vitro translated), It was fused to GAL4 domain or EYFP half in yeast and BiFC assays; also called S-K form; SOC1 a-siPEP) VSEENMQHLKYEAANMMKKIEQLEASKRKLLGEGIGTCSIEELQQIEQQLEKSVKCIRARKTQVFKEQIEQLKQKEKALAAENEKLSEK
– | binds | BdS-IK truncated BdSOC1 form (35S-Met label in the pull-down assay (in vitro translated), An artificial start codon was added; also called BdS-MK2 (primer name)) KAHELSVLCDVEVALIVFSPSGRLYEFASASMQKTLERYKASTKDKTSSPTAQQDIEKIKADAEGLSQKLEALEAYRRKFLGEKLEDDCSFEELNSLEVKMEKSLRSIRRMKTQVFEDQLAKLRQKEMTLRKENEDLRGK

Continued, binder first:

Binder | binding result [1] | binding result [2]
S-IK truncated SOC1 form (35S-Met label in the pull-down assay (in vitro translated), It was fused to GAL4 domain or EYFP half in yeast and BiFC assays; also called SOC1 a-siPEP) KKAFELSVLCDAEVSLIIFSPKGKLYEFASSNMQDTIDRYLRHTKDRVSTKPVSEENMQHLKYEAANMMKKIEQLEASKRKLLGEGIGTCSIEELQQIEQQLEKSVKCIRARKTQVFKEQIEQLKQKEKALAAENEKLSEK | binds | –
BdS-K truncated BdSOC1 form (35S-Met label in the pull-down assay (in vitro translated), An artificial start codon was added) TAQQDIEKIKADAEGLSQKLEALEAYRRKFLGEKLEDDCSFEELNSLEVKMEKSLRSIRRMKTQVFEDQLAKLRQKEMTLRKENEDLRGK | – | binds
